We go through 19 sequences from a protein production outcome set (Wang et al. 2014).
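Further: failed if final PepcDB status was selected cloned or expressed and not failed if soluble or beyond.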

The series is described as follows: label from the status in PepcDB records.
As for “MSLQLLIAQVLLLLLGSLGISAAAPDLIVKHGLRALLAVALTFAVARIRPRTLLKWGTNVWIVALVLLVLVLFIGQGSQDSPGVRRWLSIAGQEFQPSEFAKLALVLQLASFFSRRGVQNKLLSATGMIIATTALVIFEPDLGTSVLTFGLGIIVMYAAGVRLFNIGGLVLALGLFSLPFVNSYLESHPYILKRWTGHQVRDDGVVTGLDQIGMAHRDLNYGGWWGQGPDGPRWEYFAAHTDMVVAAVGFSSGLLGVLTLLFAYWLIVSTALQVAQLATRIRPMSAEIHGASILAIGCMFLVVGQAFVNLAVAAGLFPVTGVPLPLVSYGFSSMLTMSVALGIIHSAMREVRRQLPVEVKMDDFVGAAADD”, the protein production entry was “failed”.
The result for “MFMAENRLQLQKGSAEETIERFYNRQGIETIEGFQQMFVTKTLNTEDTDEVKILTIWESEDSFNNWLNSDVFKEAHKNVRLKSDDDGQQSPILSNKVFKYDIGYHYQK” reads “not failed”; that for “MQRERTAESSLRVISKEKNSITVEMINYDNTLLRTLVEEILKDDQVDEARYYIKHPVIDNPQIYVRVKSGKPQSAIKRAVRKLSKLYEDLGTQFQKEFQRYESDHMIKAVE”, “not failed”.
Turning to “MSEFTRVFNYKIKLIIAISLFFTQLISANASVEVNISVEQPEHHLANVELKFEQVNESKVNFYLPTWRTGRYETLNLANGIREFIAQDSQGNVLSWHKIDKNTWQVSDAKNKKITLTYQVYANQLAKRTRHIDDSHAFLDSSAVVMYSQASRSSEHIVQLSVPKLWKSFSGLESGNNSHQFIAHDYDQLVDSPIESGINEHYQFSVDNRQYELVIWGEGNYDSAKMVKDLQILVKQSKHVWQGYPFKRYVFMVHATSGARGATEHVNSTIIQRSRFKFSTRKDYLSFIAVAAHEFVHTWNVKQYRPKGIVPYDYQQENYSNLLWLVEGSTSYLQYQLLLRGNLMTTDEFFTALAKRITAHAHKPGKESQSVAQASFDAWISEGGDYGNNHSVNIYSEGFLASWLLDFDILAKTALSKSYRNAHNQLYQQHRLPKGYDEQDVLSILEQITGDDYQVWWQKNIQGTTKINFNRLLAKAGLKMSYAKNVKDKSSEQSKVWTGLKTKLDNHDLIVSSVEKNSPAWDAGLTTEDVIVAIDGLRLLDNELDNRLKDFKPKQTITVTYFRRDKLITSRLKLAAIPKNKLKIIPIAKASVEQKAFFKAWMGVDFPEKK”, the protein production result was “failed”.
As for “MAATTNFTKSMLFPFSHVSGNASLNSQRRTWPKQYKSKNGYRSLRVNGLFGGGNKDNNSEDGQSKAGIFGNMQNMYETVKKAQMVVQVEAVRVQKELAAAEFDGYCAGELVKVTLSGNQQPIRTDITEAAMELGSEKLSQLVTEAYKDAHAKSVVAMKERMSDLAQSLGMPPGLSEGMK”, the protein production entry was “failed”.
The result for “MLHDTPLITTIVAGLCLAFLLGMIASRLRISPLVGYLLAGVIVGPNTGGFRIDSGIINQLAEIGVILLMFGVGLHFSLKDLLSVKAIAIPAAIAQMAFSTFLGSCLGLIMGWGLSSSVVFGLALSTASTVILLRALQERHLIETEKGRIAVGWLIIEDLAMVLILVLIPSLANILGNTKKEAIDPLIQWLDLSIWGIFGLTILKVILFIILMLVIGRRVIPWLLKVSAHSGSRELFRLSVFATALGVAFGAAHLFGVSLSLGAFFAGMVMSESELSHRAAEESLPLRDAFSVLFFVSVGMLFDPGKILSHFFPLLATLFIIIIGKSAGAFFILKAFRYSNATACTISASLAQIGEFSFILAGLSLSLGLLNNDAHDFILGGAILSILVNPLIFIAFDKIKKHLENLPKNSQDTQKIIDIDPKDPDQEFLPMTSKTNHIVIIGYSRIGKCVALSLINRGDPVVIVEESKRLTDKAIADGFEVICGNIIKQDVMNAANMSNAYKVVITMCNTIEVGECIVNIRDMNKDIQIITHTLSDVDTAYLIDLGADIVVTDEEEIANGVIEHITGQRFIKNIAQS” reads “failed”; that for “MLTDMQRDSASSSTVTTEQIVYGALPLTTINEPECRAIAITSINGSATLSGVSGPMGDQTDADLLIQLRGWADAIVVGAETARKENYGPVVLPHGIKNQRQKLGRCGLPKLTLLSKSLYFDFSSELFSPDLPSELSPLVITQQPANNSEQWDQRLQKLIDVGVEVIVAPTSTNPLKIAFDALHARRLKKISIEGGPSVYRQALSLGIVDRLHLTIAPNIICPVESPLFGKISDDSFTTRLVLEMLSSSPNGLIFSRYKVIRDTLGNPTQ”, “not failed”.
For “MIHWRNCLASAVPKLAVIAHDLIQVWVCWVALHAARYSMLVHPPGLPYVDWRTLVVLIAQAVVFWRVGLYRGLWRFASVPDLWNIFKSAFSGLIVIVLVLSVTRFEGVPLSVLVVYPFALSVLLGMPRLLYRAWKDYQLIHPVDSSERVLILGAGRTAEALVRDMRRTGAFVPVGFIDDAVYLRGAKIQGLNVLGRLEEVSTIARETAAKLLVIAIPSLDAAGMQRVVAMCESTGLPFRMVPKLIDVLEGRTLPCQLKEVSIEDLLNRKPVIPDWRLIRSWLSGKTVMVTGGGGSIGSEVCRQCARHGASRVVIVEIDELALLTIHSDLRRLFPDIEVLPILGDCGDAAVIAHALRCVRPDAVFHAAAYKQVPLLEEQLREAVRNNVLATENVARHCVAAKIQTFVFISTDKAVEPVNVLGATKRYAEMVCQSFDAKSTGTRFVTVRFGNVLDSAGSVVPLFREQIRQGGPVTVTHPDVTRYFMTISEACQLILQAAALASHGAIYTLDMGEPVRINLLAEQMIRLAGKQPGRDIVIVYTGLRPGEKMHETLFYADENYRPTAHPNILEADVRTFPQEQVLQSVMRLREAVQHYDTVEIESVISMLMPDFHAARHKKETRFETVVPFPAREVRRL”, the protein production result is “failed”.
In the case of “MAEAHVTKVGIVGIGFIGSDHLHRLTKTVANVDVTAVCDIVPGKAQKALDQQGLTATTYEDYHDLVNDPNVEVVVCTANNEAHYEIVMAALKAGKFTFCEKPLALDAKQCMDIIDSEKKLGRRMLQVGFMRHYAPEYVQMKKMIDDGVIGKPLMMDQRHYNQTQPEEYDSSRSIIETAIHEIDIDHWLVNDDYANIRVFSPKQTRHVQNAKIQDPQIVMIETKSGINIINEVFVRCQYGYDIKCDVIGEEGVLELPTVPQVATRLNAQYSTAILTDWKARFESAYDIEFRDFINHVSQNESPVGPSAWDGYIAAVTADAALKSLAEDGAKQDLDFPSTPAFYTESEKVSE”, the protein production entry is recorded as “failed”.
Take “MLMEVKALAHAKNDSVAVATDDLKEGEEIQVAFLDNNEKTKITTAEVIPLGHKISLKDIKKGENVIEYGEVIGAATKDIKRGEHVHIHNIKSLRW”: the protein production result is “not failed”.
Consider “MESLDSVSIAILLGSVLVMAGILSSLLALRFGAPLLLVFLVIGILAGESGPGGINFNDLGTTYLVGSVALALILFDGGLKTRFSSIKAVLAPSMGLATVGVLLTALVTAPVARYALDLSWVEALLASAVVASTDAAAVFLLVHAQGLRLRPRVGATLEVESGTNDPFAVFLTLMLVELITRGESSILHVLIEFVREAALGAVIGVVGGRVVVMALNRVALPQGLHAPFVTTAALVVFGAAQMSHASGFLAVYLAGMIIGNQPTRAHNSVVAFLDAATWLAQIVMFVLLGLLVSPQRLMGSIGPAVVIALALMLVARPLAVFICLAPFRFNWRERLFIAWVGLRGAVAIFLASIPMLVGLSKAYLYFDVAFVVVLISLMLQGWTLAPAARKLLVALPRSDRGPRRIELDLPGQLEQQLVGYAVRPKSLYLKRGLIPSWSKPTLVIRDQRILTPEEAEPVAPGDYVYLLAPPEKAAALDRFFVDMPPSTAPDPHLLGDFIVPGETSLGDLAAAYGISVPPGQEALTLADYFDIYLDQAPMVGATLPLDSIVLVARSLGGGRVNVVGLRLPEEEDEAPPPTRLAKVRTKLSEVWSLLAGV”, for which the protein production entry is “failed”.
Next, “VLIIPGGGYRRIVYEREGLDVGRWIAGQGYTAFILSYRMPSVNGYYSFADAKNALNFISYWAGMSERTFKSVGCMGFSAGGHLAGYITHLHYEEETSVRPDWMALIYPVISLDRSIAHQGCRKRLLDAGESEYSASLENSVTEYMPPVFIVHATDDKDVPVIHSLRYFNSIRDKGHHAEAHFFDKGGHGFGVSGKNGYPIEKWQSLLLEWLAEH”: “failed”.
The result for “DPKEGVQYEVLSTSLENDGMAPVTEVFALSCGHCRNMENFLPVISQEAGTDIGKMHITFNQSAHIASMFYYAAEMQVDGAPDHAFMEDLFAATQMGEGTTLTEQQEAYSKAFTSRGLVSPYDFNEEQRDTLIKKVDNAKMLSEKSGISSVPTFVVNGKYNVLIGGHDDPKQIADTIRYLLEK” reads “not failed”.
Next, “MLREAEVVVLGAGVAGLTLARLLWERGRKVLVVAEALGEASRPPVALVNPLRGRRFTLAEEGERALAAALAFYGRFVPLHLGVFRPVPEEDRPKVAGRLSRLKHRWEKEGVLLEEAFWLEPRPLLARLAEGLPLLRGRVLAWEPPWLVLEGGGRVRGEVLVYAGGGRGAHLLGLEGRHVPGLVLTLLDYFPRAVSYRVYLAGAALGGSYLPGEEGYRLPPPTEGEVEWLLQGAEALVGYRPRVASLWRGVRFRLSSFLFPVEGGFALTGFGSTGFLYAPLLAERLAERLLEHHHHHH”: “failed”.
For the sequence “RPQGLHLELETRLQKMYGIRQVIVVEATEPDDEESIKQAIGSAAAHYLETSLSAQDHIGISSWSSTIRAMVSHMHPQPGKQSAQEVVQLLGGVGNKGAFEATLLTQRLATLLNCPAFLLPSQSIEQSVESKQRIVEMEEVKEVLHRFDSITLAIVGIGELEPSQLLRNSGNYYTEDMLRVLAERGAVGDICLRYFDAQGKPVLEEDEEFVVSMGLGKLRSINRVLGLAGGVRKVQAIKGALLGGYLDVLITDVGTARGLGG”, the protein production result is given as “not failed”.
The result for “MLSKHYKLKFPGTLAMKGGYLFVFLAAVMWGTLGIFAKFLYGFNLSTYTIVFYRVLFALIFLAVYLKVRGLPLLMSKDRLPFYLGFSFFSIFLFYSLYFYTVKISSVSFAVLMLYTAPVYSLIFGRILFGEKLTPSKLTAVFLVILGVLLLNLDGKLNVSKLALLTGLASGLTYSLYGVFVKFAVRREEPERVLFNVLLIGLLFLLPVTDLRVPTAALPYLLGLAFFPTFLGYILYNTALKTVEVSKASIIATIEPVVAIILAYFIFGEALSLLQYLGASLIIAGAILAKR” reads “failed”.
On to “MTERGLLIVLSGPSGVGKGTVREAVFKDPETSFDYSISMTTRLPREGEQDGVDYYFRSREVFEQAIKDGKMLEYAEYVGNYYGTPLEYVEEKLAAGVDIFLEIEVQGAMQVRKAMPEGIFIFLTPPDLSELKNRIIGRGTESMEVVEERMETAKKEIEMMASYDYAVVNDVVANAVQKIKGIVETEHLKTERVIHRYKKMLEGLQ”, for which the protein production result is recorded as “not failed”.
Take “MTIQQWLFSFKGRIGRRDFWIWIGLWFAGMLVLFSLAGKNLLDIQTAAFCLVCLLWPTAAVTVKRLHDRGRSGAWAFLMIVAWMLLAGNWAILPGVWQWAVGRFVPTLILVMMLIDLGAFVGTQGENKYGKDTQDVKYKADNKSSN”: the protein production result is on record as “failed”.
Next, “MERITDVPESPAQSADPARVNDYDSFAEAYSAETENNLVNAYYARPAMLALAGDVAGRRILDAGCGSGPLSAALRDRGAVVTGIDASAGMLALARRRLGDDVALHVVDLSDRLPFDDGAFDDVVASLVLHYLEDWGPTLAELRRVLRPGGRLIASVDHPFVAYTFQDPRPDYFATTSYTFDWTFNGQSVPMKFWRKPLHAMTDAFTTAGFRLSVISEPQPDPAAIELFPDAFHDLSTKTCFLFFVVEVPPSATGSDDY”: “failed”.
